# Biological target: the molecule itself
# Assay: crystal structure; hanging drop, 5 mg/ml enzyme, 0.1 M Tris pH 9.0, 28 to 30% PEG mono ethylene ether 500, 4°C; soaked with ceftazidime; space group P2(1)2(1)2(1), four chains in the asymmetric unit
protein,measurement,value
"OXA-48 variant L67F (enzyme, carboxylated lysine at K73, point mutation L67F made by site-directed mutagenesis; Crystals were soaked with ceftazidime; chains C and D carry a hydrolysed ceftazidime molecule; also called OXA-48 L67F; source: E. coli BL21 AI (pDEST17), purified) KEWQENKSWNAHFTEHKSQGVVVLWNENKQQGFTNNLKRANQAFFPASTFKIPNSLIALDLGVVKDEHQVFKWDGQTRDIATWNRDHNLITAMKYSVVPVYQEFARQIGEARMSKMLHAFDYGNEDISGNVDSFWLDGGIRISATEQISFLRKLYHNKLHVSERSQRIVKQAMLTEANGDYIIRAKTGYSTRIEPKIGWWVGWVELDDNVWFFAMNMDMPTSDGLGLRQAITKEVLKQEKIIP",stoichiometry N,2

# Reference: article PMC8092134, “Cryptic β-Lactamase Evolution Is Driven by Low β-Lactam Concentrations” (mSphere, 2021)
